# Results published in patent US20170189507A1.
# Molecular target: HLA-A*24 (human)
# Test: UV-ligand exchange ELISA
row,peptide exchange yield [%],Binder
1,50 to 75,NYYEVHKELF [peptide SEQ ID No 270]
2,50 to 75,LYITEPKTI [peptide SEQ ID No 287]
3,50 to 75,YFIDSTNLKTHF [peptide SEQ ID No 269]
4,> 75,VYQGHTALL [peptide SEQ ID No 277]
5,50 to 75,HYPPVQVLF [peptide SEQ ID No 285]
6,50 to 75,QYLGQIQHI [peptide SEQ ID No 268]
7,20 to 49,PYRLIFEKF [peptide SEQ ID No 281]
8,50 to 75,TFSVSSHLF [peptide SEQ ID No 222]

# More lines, now with the values behind:
row,Binder,peptide exchange yield [%]
1,IYATEAHVF [peptide SEQ ID No 201],50 to 75
2,YYGPSLFLL [peptide SEQ ID No 200],50 to 75
3,AYVVFVSTL [peptide SEQ ID No 207],20 to 49
4,TYELRYFQI [peptide SEQ ID No 204],> 75
5,VYWDSAGAAHF [peptide SEQ ID No 202],> 75
6,TYKDEGNDYF [peptide SEQ ID No 209],50 to 75
7,RYAEEVGIF [peptide SEQ ID No 199],50 to 75
8,YYKSTSSAF [peptide SEQ ID No 218],50 to 75
